The assay deals with NEIL1 DNA glycosylase (Homo sapiens (; the 390 aa …, UniProt Q96FI4). As to the kind of experiment: two-hybrid.
Chain of NEIL1 DNA glycosylase (Homo sapiens (Q96FI4 whole entry): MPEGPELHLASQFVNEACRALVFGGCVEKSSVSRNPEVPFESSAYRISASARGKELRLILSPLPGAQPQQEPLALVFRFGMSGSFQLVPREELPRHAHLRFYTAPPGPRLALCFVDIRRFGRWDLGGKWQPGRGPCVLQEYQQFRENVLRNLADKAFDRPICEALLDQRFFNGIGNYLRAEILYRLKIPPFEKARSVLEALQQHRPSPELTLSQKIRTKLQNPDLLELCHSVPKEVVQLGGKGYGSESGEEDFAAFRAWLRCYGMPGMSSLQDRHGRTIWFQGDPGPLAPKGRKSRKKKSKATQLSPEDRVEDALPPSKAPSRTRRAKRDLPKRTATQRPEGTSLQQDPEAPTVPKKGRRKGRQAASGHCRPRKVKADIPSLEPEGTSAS

B1: A5 nanobody (anti-NEIL1 nanobody) (VHH)
VHH: EVQLQASGGGFVQPGGSLRLSCAASGATSERDIMGWFRQAPGKEREFVSAISYEPGGWHYYADSVKGRFTISRDNSKNTVYLQMNSLRAEDTATYYCAWQEIMYGEAYWRYWGQGTQVTVSS
For the molecule B1, the binding result was “binds”.

(Values after article doi:10.1101/2023.08.07.552313 (bioRxiv, 2023).)
